Results from PMC3214010.

Tests used:
[1] = biological target: human Dcn1 potentiating neddylation domain (hDcn1^P) (human) (UniProt Q96GG9); assay: ITC
[2] = biological target: yeast Dcn1 potentiating neddylation domain (yDcn1^P) (yeast) (UniProt Q12395); assay: ITC
Chain of UniProt Q12395 (Q12395 70-269): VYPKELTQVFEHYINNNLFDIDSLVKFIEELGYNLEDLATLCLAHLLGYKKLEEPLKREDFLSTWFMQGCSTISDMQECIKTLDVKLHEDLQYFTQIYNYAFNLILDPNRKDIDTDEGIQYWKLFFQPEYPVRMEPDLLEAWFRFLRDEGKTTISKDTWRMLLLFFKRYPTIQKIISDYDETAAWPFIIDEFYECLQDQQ

Chain of UniProt Q96GG9 (Q96GG9 62-259): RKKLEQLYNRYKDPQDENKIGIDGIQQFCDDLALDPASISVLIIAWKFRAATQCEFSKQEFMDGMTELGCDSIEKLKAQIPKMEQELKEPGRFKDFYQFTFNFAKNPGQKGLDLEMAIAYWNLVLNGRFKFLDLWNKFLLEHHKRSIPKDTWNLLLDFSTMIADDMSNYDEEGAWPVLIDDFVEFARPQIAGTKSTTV

fold change of Kd against the acetylated peptide (weaker binding) [1] [fold]	fold improvement of binding over the unacetylated peptide [1] [fold]	fold change of Kd against the acetylated peptide (weaker binding) [2] [fold]	fold improvement of binding over the unacetylated peptide [2] [fold]	Substance
9	10			N-terminally formylated human Ubc12 peptide
		17	10	N-terminally formylated yeast Ubc12 peptide
